The values that follow come from patent US20210130420A1, “RECOMBINANT BINDING PROTEINS TARGETING HER2 AND SERUM ALBUMIN, AND THEIR USES” (Molecular Partners AG, priority 2016, published 2021).

This series can be described thus: Pharmacokinetic analysis in cynomolgus monkey. It is filed as in vivo. The note with it: 1 mg/kg, intravenous infusion. On the procedure: The measurements shown in this example are the result of a half-life engineering effort as described in Example 11. Protein #21-His, Protein #23-His, and Protein #24-His were expressed and purified as described in Example 1. The pharmacokinetic properties of the proteins were assessed in cynomolgus monkey. Proteins were administered via intravenous infusion for 30 min at a target dose level of between 1 mg/kg to cynomolgus monkeys. Blood samples were collected pre-dose and again at selected time points, for example 5 min, 10 min, 0.5 hours, 1 hour, 2 hours, 4 hours, 8 hours, 12 hours, 24 hours, 48 hours, 72 hours, 96 hours, 120 hours, 144 hours, 168 hours, 192 hours, 216 hours, and 240 hours post-end of infusion (i.e. post-injection). The blood samples were allowed to stand at room temperature and were centrifuged to generate serum, followed by storage at −80° C. pending analyses. Pharmacokinetic parameters were determined using procedures well known to the person skilled in the art. Serum concentrations of proteins were determined by sandwich ELISA using a rabbit monoclonal anti-designed ankyrin repeat domain antibody as capture reagent and murine monoclonal anti-designed ankyrin repeat domain antibody as detection reagent, and using a standard curve. Pharmacokinetic parameters were determined using standard software such as Phoenix WinNonLin (Certara, Princeton, USA) or Graph Pad Prism (GraphPad Software, La Jolla, USA) and standard analyses such as non-compartmental analyses. […] Target mediated clearance is well-known to the person skilled in the art and is known from e.g. antibodies targeting HER2.
Similarly, Protein #21-His was expressed and purified as described in Example 1. The pharmacokinetic properties of the proteins were assessed in cynomolgus monkey as described above at 1 mg/kg, 5 mg/kg and 10 mg/kg.
Similar results are observed when testing Protein #21 (expressed and purified as described in Example 1). The pharmacokinetic properties of the proteins are assessed in cynomolgus monkey as described above at 1 mg/kg, 10 mg/kg and 100 mg/kg. Pharmacokinetic parameters are evaluated as described above.
For the studies in this example Protein #21-His, Protein #24-His, Protein #28-His, Protein #29-His, and Protein #30-His were prepared according to Example 1. Protein #28-His was additionally PEGylated using a 40 kDa PEG moiety (NOF Sunbright GL2-400MA) by maleimid coupling of the PEG-moiety onto the free C-terminal cysteine of Protein #28-His, followed by purification to homogeneity using standard purification methods, procedures well known to the person skilled in the art. Pharmacokinetic analyses in mouse or cynomolgus monkey were performed as described in Examples 8 and 9.

B1: Protein #24-His: SEQ ID NO: 24 with a His-tag (SEQ ID NO: 1) fused to its N terminus (protein)
chain: MRGSHHHHHHGSDLGKKLLEAARAGQDDEVRELLKAGADVNAKDYFSHTPLHLAARNGHLKIVEVLLKAGADVNAKDFAGKTPLHLAANEGHLEIVEVLLKAGADVNAQDIFGKTPADIAADAGHEDIAEVLQKAAGSPTPTPTTPTPTPTTPTPTPTGSDLGKKLLEAARAGQDDEVRELLKAGADVNAKDYFSHTPLHLAARNGHLKIVEVLLKAGADVNAKDFAGKTPLHLAANEGHLEIVEVLLKAGADVNAQDIFGKTPADIAADAGHEDIAEVLQKAAGSPTPTPTTPTPTPTTPTPTPTGSDLGIKLLFAAAKGQDDEVRELLKAGADVNAKDFQGVTPLHIAAQSGHLEIVEVLLKAGADVNAKDVTGDTPLHLAAQHGHLEIVEVLLKAGADVNAQDERGWTPADLAADWGHEDIAEVLQKAAGSPTPTPTTPTPTPTTPTPTPTGSDLGKKLLEAARAGQDDEVRELLKAGADVNAKDEYGLTPLYLATAHGHLEIVEVLLKAGADVNAVDAIGFTPLHLAAFIGHLEIAEVLLKAGADVNAQDKFGKTPADIAAGAGNEDIAEVLQKAA
modifications: His-tag; Protein comprising four designed ankyrin repeat domains
B1 registered a terminal half-life of 45 h.
